Test results as given in US20170106012A1.

Biological target: T1, Bone morphogenetic protein 2 (BMP-2), recombinant human (Homo sapiens) (UniProt P12643)
T1 sequence: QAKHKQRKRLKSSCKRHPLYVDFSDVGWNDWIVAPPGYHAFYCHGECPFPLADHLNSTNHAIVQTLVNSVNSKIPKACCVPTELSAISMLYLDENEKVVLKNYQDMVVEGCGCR
Assay: cell-based or functional assay

B1: noggin (protein, UniProt Q13253 28-232, looked up, species assumed)
Noggin: QHYLHIRPAPSDNLPLVDLIEHPDPIFDPKEKDLNETLLRSLLGGHYDPGFMATSPPEDRPGGGGGAAGGAEDLAELDQLLRQRPSGAMPSEIKGLEFSEGLAQGKKQRLSKKLRRKLQMWLWSQTFCPVLYAWNDLGSRFWPRYVKVGSCFSKRSCSVPEGMVCKPSKSVHLTVLRWRCQRRGGQRCGWIPIQYPIISECKCSC
B1 showed an inhibition of BMP-2-induced ALP activity in C2C12 cells; noggin at 30 ng/ml, BMP-2 at 100 ng/ml, no GAG of 14 percent, an inhibition of BMP-2-induced ALP activity in C2C12 cells; noggin at 30 ng/ml, in the presence of HS+ve of 2 percent and an inhibition of BMP-2-induced ALP activity in C2C12 cells; noggin at 30 ng/ml, in the presence of HSpm of 4 percent. It also gave an inhibition of BMP-2-induced ALP activity in C2C12 cells; noggin at 100 ng/mL, in the presence of HS-ve of 75 percent, an inhibition of BMP-2-induced ALP activity in C2C12 cells; noggin at 100 ng/ml, BMP-2 at 100 ng/ml, no GAG of 95 percent and an inhibition of BMP-2-induced ALP activity in C2C12 cells; noggin at 100 ng/ml, in the presence of HS+ve of 43 percent. For the same binder, the inhibition of BMP-2-induced ALP activity in C2C12 cells; noggin at 100 ng/ml, in the presence of HSpm was 62 percent.
